# Experimental data taken from patent publication US20230183349A1.
# Molecular target: PD1 aglycosylated at Asn58 (human) (UniProt Q15116)
# Assay: SPR Biacore T200, antibody captured by anti-human IgG, PD1-ECD as analyte, 25 °C, 1:1 Langmuir
binder,measurement,value
"PD1-0103-0312 (antibody, V domains shown) VH: EVQLLESGGGLVQPGGSLRLSCAASGFSFSSYTMSWVRQAPGKGLEWVATISGGGRDIYYPDSVKGRFTISRDNSKNTLYLQMNSLRAEDTAVYYCVLLTGRVYFALDSWGQGTLVTVSS VL: DIVMTQSPDSLAVSLGERATINCKASESVDTSDNSFIHWYQQKPGQSPKLLIYRSSTLESGVPDRFSGSGSGTDFTLTISSLQAEDVAVYYCQQNYDVPWTFGQGTKVEIK",Kd,80.2 nM
same,koff,0.027 s⁻¹
same,kon,336000 M⁻¹ s⁻¹
